Laboratory results published in patent US20230322857A1, “RECOMBINANTLY ENGINEERED POLYPEPTIDES CAPABLE OF RECYCLING NONCANONICAL COFACTORS” (The Regents of the University of California, priority 2022, published 2023).

B1: TS-PTDH: 16× thermostable variant of Pseudomonas stutzeri phosphite dehydrogenase (SEQ ID NO:2), engineering template (protein, listed as Pseudomonas stutzeri)
chain: MLPKLVITHRVHEEILQLLAPHCELITNQTDSTLTREEILRRCRDAQAMMAFMPDRVDADFLQACPELRVIGCALKGFDNFDVDACTARGVWLTFVPDLLTVPTAELAIGLAVGLGRHLRAADAFVRSGKFRGWQPRFYGTGLDNATVGFLGMGAIGLAMADRLQGWGATLQYHEAKALDTQTEQRLGLRQVACSELFASSDFILLALPLNADTLHLVNAELLALVRPGALLVNPCRGSVVDEAAVLAALERGQLGGYAADVFEMEDWARADRPQQIDPALLAHPNTLFTPHIGSAVRAVRLEIERCAAQNILQALAGERPINAVNRLPKANPAAD
B2: wild-type PTDH: wild-type phosphite dehydrogenase enzyme, literature TTN with NAD^+ (protein, UniProt O69054 1-336, looked up)
Phosphonate dehydrogenase: MLPKLVITHRVHDEILQLLAPHCELMTNQTDSTLTREEILRRCRDAQAMMAFMPDRVDADFLQACPELRVVGCALKGFDNFDVDACTARGVWLTFVPDLLTVPTAELAIGLAVGLGRHLRAADAFVRSGEFQGWQPQFYGTGLDNATVGILGMGAIGLAMADRLQGWGATLQYHEAKALDTQTEQRLGLRQVACSELFASSDFILLALPLNADTQHLVNAELLALVRPGALLVNPCRGSVVDEAAVLAALERGQLGGYAADVFEMEDWARADRPRLIDPALLAHPNTLFTPHIGSAVRAVRLEIERCAAQNIIQVLAGARPINAANRLPKAEPAAC

Tests used:
[1] = Steady-state kinetics of TS-PTDH variants with NMN^+; format: biochemical; conditions: enzyme could not be saturated; 100 mM MOPS, pH 7.25, 10 mM sodium phosphite
Procedure: (§1) Purification and Characterization of TS-PTDH Variants. The E. coli BL21(DE3) strains harboring pQElac plasmids encoding the TS-PTDH or TS-PTDH variants were grown in 2×YT media with kanamycin and ampicillin at 37° C. The IPTG-inducible expression, Ni-affinity purification, and protein concentration determination was conducted as described above.
(§2) The steady-state kinetic parameters toward the coenzymes were measured by spiking purified protein into a 100 μL reaction mixture containing 100 mM MOPS, pH 7.25, 10 mM sodium Pt, and varied cofactor concentrations from 0.02 mM to 5 mM at 25° C. The kinetic parameters were measured by monitoring the […] of reduced coenzyme at 340 nm. Data were fitted to the Michaelis-Menten equation to generate estimates of KM and kcat values.

[2] = Steady-state kinetics of TS-PTDH variants with NAD^+; format: biochemical; conditions: 100 mM MOPS, pH 7.25, 10 mM sodium phosphite, varied cofactor concentrations; n = 3
Procedure: as §1, §2

[3] = Specific activity of TS-PTDH variants with NMN^+; format: biochemical; conditions: 100 mM MOPS pH 7.25, 10 mM sodium Pt, 4 mM cofactor, 25° C.
Procedure: as §1
The specific activities of TS-PTDH and variants were measured with the following methods. Briefly, the reaction mixture contained 100 mM MOPS buffer, pH 7.25, 10 mM sodium Pt, and 4 mM cofactor (NAD^+, NADP^+, or NMN^+). The formation of reduced coenzyme was measured by light absorption at 340 nm in a 96-well plate at 25° C. Absorption was correlated to a molar basis using the extinction coefficient (ε) of 6.22 mM^−1 cm^−1 for each cofactor.

[4] = Steady-state kinetics of TS-PTDH variants with NADP^+; format: biochemical; conditions: 100 mM MOPS, pH 7.25, 10 mM sodium phosphite, varied cofactor concentrations; n = 3
Procedure: as §1, §2

E. coli SHuffle strain = experiment: Recapitulation of growth restoration with TS-PTDH variants in SHuffle strain; format: cell-based, Escherichia coli; conditions: spotted onto agar selection plates
Procedure: Selection of TS-PTDH Library. A total of 50 μL pre-made SHuffle/pLZ311 or SHuffle/pLZ312 electro-competent cells were transformed with 2 μL TS-PTDH A155N-E175-A176-L208 NNK library DNA (pLZ316) via electroporation as described above. After rescue in SOC media for 1 h, cultures were combined in 10 mL 2×YT with 10 g/L glucose, 0.5% arabinose, kanamycin and ampicillin. 0.2, or 1 μL of culture was immediately taken from the culture and plated on an 2×YT agar plates with kanamycin and ampicillin. The plate was incubated at 37° C. overnight, and the number of colonies formed was counted to estimate the library size. The liquid cultures were incubated at 37° C. with shaking for 10 h. Cells (1 mL) were washed 3 times and re-suspended in M9 Buffer. Targeted serial dilutions of cells were prepared in M9 buffer and 5 μL aliquots were dispensed in series on an agar plate of M9 selection media containing 0.5 mM diamide, 5 or 1 g/L yeast extract, 10 g/L glucose, 0.5% arabinose, 0.5 mM IPTG, 10 g/L sodium phosphite, kanamycin, ampicillin, and 5 mM NMN^+. Selection plates were incubated at 37° C., and photographs were taken to document growth progress. The independent transformants sampled was calculated as 2.4×10^6 and 2.5×10^6 colonies when plated on 5 and 1 g/L yeast extract, respectively. TS-PTDH and the template of the library, TS-PTDH A155N, were cultured in the same conditions as controls. The colonies were numbered by the order of appearance. The selected cells were re-streaked on fresh agar plate with identical media and incubated until single colonies formed on the plate. Variants that cannot forma single colony may be false positives. After extracting the plasmids from each re-streaked colony, the chosen TS-PTDH variants were amplified and moved into the pQElac vector containing a N-terminal 6×His tag for protein purification and characterization. […] 2 μL of a serial dilution of cells were deposited onto a growth selection plate and grown at 37° C.

[5] = BNA(H)-mediated PTDH biotransformation with TsOYE; format: biochemical; conditions: 0, 5, 10, or 20 mM BNA^+
Procedure: BNA(H)-Mediated PTDH Biotransformation. Reactions with BNA^+, see FIG. 10D, contained 100 mM MOPS-NaOH at pH 7.6, 10 mM KIP, 100 mM sodium phosphite, and 2% v/v DMSO. BNA^+Cl^−, prepared by refluxing equimolar amounts of nicotinamide and benzyl chloride in acetonitrile overnight, followed by precipitation with diethyl ether on ice was supplied to the reactions at final concentrations of 0, 5, 10, or 20 mM. Reactions were initiated by spiking TsOYE and the appropriate TS-PTDH variant to a final concentration of 10 μM, each. Reaction mixtures were incubated at 30° C. on a Thermomixer C (Eppendorf) with shaking at 900 rpm for 24 h, extracted with 500 μL ethyl acetate containing 5 mM n-dodecane, and analyzed by GC-FID. The cycling system with no BNA was used to determine the background activity of the cycling systems. This value was subtracted from the final levodione concentrations in the 5-, 10-, and 20-mM samples to determine the BNA(H)^− specific levodione production. Concentrations of levodione product were determined using a calibration line (0-10 mM, 6 levels, using n-dodecane as internal standard). The y-intercept of the calibration line was forced through 0.
For BNA(H)-mediated reactions, gas chromatography analyses were performed on a GC-2010 (Shimadzu, Japan) equipped with an AOC-20i auto injector and a flame ionization detector (FID), using a CP-Sil 5 column (25 m×0.25 mm×[…]). 1 μL of sample was injected with a split ratio of 100:1 and injector at 340° C. The FID was maintained at 360° C. Nitrogen was used as the carrier gas, with a linear velocity of 30 cm/s. The oven was held at 135° C. for 1 min, ramped at 15° C./min to 215° C., then 30° C./min to 345° C., and held at 345° C. for 1 min.
Expression and Purification of Proteins for BNA(H)-Mediated Biotransformation Reactions. E. coli BL21(DE3) strains were transformed with the plasmids containing the TS-PTDH variants and grown on LB-agar plates containing ampicillin at 37° C. overnight. An overnight culture, 15 mL LB supplemented with ampicillin, was inoculated with a single colony, and grown at 37° C., 170 rpm overnight. 2 L baffled shake-flasks with 250 mL of 2×YT media containing 200 μg/mL ampicillin, were inoculated with the overnight culture, grown at 37° C., 170 rpm until OD600 of ˜1.0, induced with IPTG (0.5 mM), and grown at 30° C. and 170 rpm for 24 h. Cells were harvested by centrifugation at 18,000×g, 4° C., 10 min and stored at −20° C. until purification.
The pellet was resuspended in four volumes loading buffer (50 mM sodium phosphate, 300 mM sodium chloride, 10 mM imidazole, pH 7.7), and lysed on ice by sonication (Branson sonifier 250; 15 min total, 40% duty cycle, output control 3.5, 2 mm tip). The lysate was clarified (21,000×g, 4° C., 30 min followed by 0.2 μm filtration), and loaded (1 mL/min) onto a Nickel-HisTrap FF crude (1 mL) column, washed with loading buffer (12 column volumes, CV), followed by a step with 10% elution buffer (loading buffer containing 250 mM imidazole; 12 CV). The protein was then eluted with 100% elution buffer and collected in fractions of 0.5 mL. Fractions containing protein were combined and dialyzed against ice-cold dialysis buffer (50 mM sodium phosphate, pH 7.7, 800 mL); the buffer was renewed after the first 2 h of dialysis. Following the dialysis, the protein was mixed with glycerol (20% v/v final concentration). Enzyme concentrations were estimated by the absorbance at 280 nm (non-denatured protein), using predicted extinction coefficients (wild type and LY-13: 26470, LY-7: […]; web.expasy.org/protparam/). The protein was aliquoted, flash frozen in liquid nitrogen, and stored at −80° C. until use. […]

[6] = reported values; cited from earlier work

Molecule	Km [1]	Km [2]	NAD^+ kcat [2]	NMN^+-dependent specific activity [3]	Km [4]	NADP^+ kcat [4]	growth restoration, co-expression with NMNH-specific Gor Ortho (E. coli SHuffle strain)	growth, co-expression with wild type Ec Gor (E. coli SHuffle strain)	response of biotransformation efficiency to BNA^+ concentration [5]	TTN with NAD^+ [6]
B1	> 5000 µM	60 ± 10 µM	1.03 ± 0.01 s⁻¹	53.0 ± 3.4 nmol/min/mg	740 ± 40 µM	0.57 ± 0.01 s⁻¹	grew poorly	supported cell growth	cofactor dose-dependent response	–
B2	–	–	–	–	–	–	–	–	–	80,000
